Measured values as given in patent publication US20220288219A1 (MYTHIC THERAPEUTICS, published 2022).
Residue numbers refer to the chain shown, from its start. Names may count otherwise.

T1: cell surface CD22 on Ramos (CD22+) cells (human, UniProt P20273 20-847)
T1 construct: whole, on cells; also called CD22 on WSU-DLCL2, MHH-PREB-1 and Raji cells
T1 sequence (looked up): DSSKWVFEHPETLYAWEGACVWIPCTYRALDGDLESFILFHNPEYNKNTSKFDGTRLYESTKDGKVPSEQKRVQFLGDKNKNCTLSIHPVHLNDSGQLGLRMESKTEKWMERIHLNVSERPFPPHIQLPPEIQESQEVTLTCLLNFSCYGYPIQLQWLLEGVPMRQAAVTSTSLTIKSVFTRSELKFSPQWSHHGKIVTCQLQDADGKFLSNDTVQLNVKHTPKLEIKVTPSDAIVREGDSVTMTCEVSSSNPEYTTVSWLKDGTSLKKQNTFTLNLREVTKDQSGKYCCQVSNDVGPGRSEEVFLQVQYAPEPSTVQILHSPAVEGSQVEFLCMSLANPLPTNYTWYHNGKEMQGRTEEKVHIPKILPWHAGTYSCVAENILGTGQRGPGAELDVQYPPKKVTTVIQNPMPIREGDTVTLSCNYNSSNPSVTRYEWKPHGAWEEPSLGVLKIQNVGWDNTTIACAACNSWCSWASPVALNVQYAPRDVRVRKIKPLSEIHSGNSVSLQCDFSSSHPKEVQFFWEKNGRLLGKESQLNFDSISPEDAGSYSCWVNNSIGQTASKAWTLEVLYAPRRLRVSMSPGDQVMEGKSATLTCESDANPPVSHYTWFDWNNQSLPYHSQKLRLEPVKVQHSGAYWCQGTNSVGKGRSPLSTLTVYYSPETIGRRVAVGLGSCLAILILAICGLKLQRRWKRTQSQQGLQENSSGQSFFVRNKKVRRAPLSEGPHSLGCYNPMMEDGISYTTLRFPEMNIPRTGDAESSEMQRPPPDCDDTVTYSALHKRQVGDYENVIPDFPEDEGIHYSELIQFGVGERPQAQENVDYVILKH

T2: CD22 Protein (His Tag), Sino Biological Cat. No. 11958-H08H (UniProt P20273 20-687)
T2 construct: soluble analyte, 50 nM in BLI; also called Sino Biological antigen
T2 sequence (looked up): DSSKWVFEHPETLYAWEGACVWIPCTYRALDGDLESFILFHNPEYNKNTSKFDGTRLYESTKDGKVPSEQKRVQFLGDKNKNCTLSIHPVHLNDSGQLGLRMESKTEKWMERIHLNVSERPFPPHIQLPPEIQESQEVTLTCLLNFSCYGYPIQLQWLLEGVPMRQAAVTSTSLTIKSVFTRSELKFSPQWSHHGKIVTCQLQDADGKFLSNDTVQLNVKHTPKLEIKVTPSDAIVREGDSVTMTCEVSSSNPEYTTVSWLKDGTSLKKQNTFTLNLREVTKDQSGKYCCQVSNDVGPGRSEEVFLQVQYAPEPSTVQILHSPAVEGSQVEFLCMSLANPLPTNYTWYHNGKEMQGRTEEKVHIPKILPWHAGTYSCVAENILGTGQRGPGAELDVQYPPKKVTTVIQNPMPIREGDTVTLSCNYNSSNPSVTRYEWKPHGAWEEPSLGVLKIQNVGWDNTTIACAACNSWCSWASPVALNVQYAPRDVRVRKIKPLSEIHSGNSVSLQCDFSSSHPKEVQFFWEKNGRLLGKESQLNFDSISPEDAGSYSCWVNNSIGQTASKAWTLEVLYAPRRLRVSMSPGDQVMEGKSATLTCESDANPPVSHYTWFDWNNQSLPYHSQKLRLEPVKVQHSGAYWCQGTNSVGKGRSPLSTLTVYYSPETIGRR

T3: CD22 (Acro Biosystems, Cat #CD2-H52H8) (UniProt P20273 20-687)
T3 construct: soluble analyte, 50 nM in BLI; also called Acro Biosystems antigen
T3 sequence (looked up): T2 sequence (looked up)

B1: MYT4405 (antibody, V domains shown)
VH: EVQLVQSGAEVKKPGASVKVSCKASGYRFTHYWIHWVRQAPGQGLEWIGGINPGNNYATYRRKFQGRVTMTADTSTSTVYMELSSLRSEDTAVYYCTREGYGHYGAWFAYWGQGTLVTVSS
VL: DVQVTQSPSSLSASVGDRVTITCRSSQSLANSYGNTFLSWYLHKPGKAPQLLIYGISNRFSGVPDRFSGSGSGTDFTLTISSLQPEDFATYYCLQGTHQPYTFGQGTKVEIK
notes: inotuzumab VH N31H+N103H; tie by order
B2: inotuzumab (antibody, V domains shown)
VH: B1 VH with H31N, H103N
VL: B1 VL
notes: IgG from Expi293, captured by anti-human Fc; entries headed heavy/light chain hold only the variable domains; also called MYT0518; INOTUZUMAB starting ABPC
B3: MYT4424 (antibody, V domains shown)
VH: B1 VH with T59H
VL: B1 VL
notes: inotuzumab VH N31H+T59H+N103H; tie by order
B4: pinatuzumab (antibody, V domains shown)
VH: EVQLVESGGGLVQPGGSLRLSCAASGYEFSRSWMNWVRQAPGKGLEWVGRIYPGDGDTNYSGKFKGRFTISADTSKNTAYLQMNSLRAEDTAVYYCARDGSSWDWYFDVWGQGTLVTVSS
VL: DIQMTQSPSSLSASVGDRVTITCRSSQSIVHSVGNTFLEWYQQKPGKAPKLLIYKVSNRFSGVPSRFSGSGSGTDFTLTISSLQPEDFATYYCFQGSQFPYTFGQGTKVEIK
notes: IgG from Expi293; also called MYT1293; PINATUZUMAB starting ABPC
B5: MYT1331 (antibody, V domains shown)
VH: B4 VH with F107H
VL: B4 VL
notes: pinatuzumab VH F107H; tie by order
B6: MYT0520 (antibody, V domains shown)
VH: B1 VH with Y27H, H31N, H103N
VL: B1 VL
notes: inotuzumab VH Y27H; tie by order
B7: MYT0536 (antibody, V domains shown)
VH: B1 VH with H31N, Y57H, H103N
VL: B1 VL
notes: inotuzumab VH Y57H; tie by order
B8: MYT0544 (antibody, V domains shown)
VH: B1 VH with H31N, T97H, H103N
VL: B1 VL
notes: inotuzumab VH T97H; tie by order
B9: MYT0550 (antibody, V domains shown)
VH: B1 VH with H31N
VL: B1 VL
notes: inotuzumab VH N103H; tie by order
B10: MYT0526 (antibody, V domains shown)
VH: B1 VH with H31N, W33H, H103N
VL: B1 VL
notes: inotuzumab VH W33H; tie by order

Molecular target: T1, cell surface CD22 on Ramos (CD22+) cells
Assay: flow cytometry, antibody titration on Ramos (CD22+) cells, AF488 anti-human IgG
Procedure: 100,000 cells per well were resuspended in 900 μL FC buffer in a 96 well deep well plate. Pinatuzumab, Inotuzumab, and pH engineered antibody variants were serially diluted at a 1:3 dilution. 100 μL of diluted antibody was added to each well with final concentration ranging from ˜100 nM to 0.024 pM and incubated for 2 hours at 4° C. Post incubation, the cells were spun at 2000 rpm for 2 min and supernatant was discarded. Cells were washed twice with 500 μL of ice-cold FC buffer and resuspended with 100 μL of FC buffer. The cells were then transferred from the deep well plate to 96 well round bottom plate, spun at 2000 rpm for 2 min and incubated with 100 μL of 10 μg/mL Alexa Fluor 488 conjugated goat anti-human IgG secondary antibody (ThermoFisher Scientific, A11013) for 30 min. Post incubation, cells were washed with FC buffer and resuspended in 100 μL of FC buffer to read on a BD Accuri C6 flow cytometer. Binding affinity was measured as a dissociation constant KD by GraphPad Prism assuming Michaelis-Menten binding kinetics. MYT1331, MYT4405 and MYT4424 show high affinity binding to cell surface CD22 on Ramos cells in the pM-nM range confirming that variants created through pH engineering can retain functionally appropriate affinities as compared to their corresponding starting ABPCs (e.g., inotuzumab or pinatuzumab).

Row | Binder | IC50 [pM]
1 | B1 | 240
2 | B2 | 75
3 | B3 | 115
4 | B4 | 362
5 | B5 | 395

Molecular target: T2, CD22 Protein (His Tag), Sino Biological …
Assay: BLI, IgG on anti-human Fc sensor, 50 nM CD22

Row | Binder | binding result
6 | B6 | binds
7 | B7 | binds
8 | B8 | binds
9 | B9 | binds
10 | B10 | binds

Molecular target: T3, CD22 (Acro Biosystems, Cat #CD2-H52H8)
Assay: BLI, IgG on anti-human Fc sensor, 50 nM CD22

Row | Binder | binding result
11 | B6 | binds
12 | B7 | binds
13 | B8 | binds
14 | B9 | binds
15 | B10 | binds
